Assay results as given in IntAct's records for PubMed 19250911.

Biological target: T1, nbr1_human NBR1 (UniProt Q14596)
T1 sequence: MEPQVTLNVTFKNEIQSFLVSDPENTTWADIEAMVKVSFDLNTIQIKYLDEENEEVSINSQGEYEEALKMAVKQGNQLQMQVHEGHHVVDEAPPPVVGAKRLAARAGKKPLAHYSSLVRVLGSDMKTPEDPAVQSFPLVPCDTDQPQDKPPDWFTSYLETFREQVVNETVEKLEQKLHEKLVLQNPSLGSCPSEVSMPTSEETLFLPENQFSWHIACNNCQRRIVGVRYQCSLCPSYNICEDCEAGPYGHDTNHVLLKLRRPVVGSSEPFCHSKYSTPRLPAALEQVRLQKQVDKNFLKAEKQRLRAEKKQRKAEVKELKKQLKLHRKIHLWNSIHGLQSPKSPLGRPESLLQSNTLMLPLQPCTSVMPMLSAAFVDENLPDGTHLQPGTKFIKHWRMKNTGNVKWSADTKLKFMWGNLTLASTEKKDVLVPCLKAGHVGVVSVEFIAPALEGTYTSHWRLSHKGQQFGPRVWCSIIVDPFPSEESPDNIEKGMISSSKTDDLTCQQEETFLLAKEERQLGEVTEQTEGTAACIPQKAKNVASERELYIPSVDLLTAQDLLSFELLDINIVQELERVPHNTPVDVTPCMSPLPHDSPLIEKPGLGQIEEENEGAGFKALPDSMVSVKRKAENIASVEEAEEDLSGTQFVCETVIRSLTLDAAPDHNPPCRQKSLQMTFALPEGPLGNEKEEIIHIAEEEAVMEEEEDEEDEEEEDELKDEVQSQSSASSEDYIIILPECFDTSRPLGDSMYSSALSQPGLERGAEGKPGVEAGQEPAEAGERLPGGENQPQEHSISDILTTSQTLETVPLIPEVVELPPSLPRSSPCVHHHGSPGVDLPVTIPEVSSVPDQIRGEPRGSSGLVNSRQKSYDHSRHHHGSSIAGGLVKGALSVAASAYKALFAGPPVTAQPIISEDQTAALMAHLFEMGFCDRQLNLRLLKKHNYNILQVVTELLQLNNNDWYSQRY

Row | effect of a mutation on the interaction | Substance
1 | decreasing interaction | Microtubule-associated protein 1 light chain 3 beta (Homo sapiens) (from UniProt Q9GZQ8) R10A;R11A
2 | disrupting interaction | Microtubule-associated protein 1 light chain 3 beta (Homo sapiens) (from UniProt Q9GZQ8) R70A
